Experiment: yeast display, Sf9 membrane polyspecificity reagent, FACS + sequencing; frameworks hold sequencing errors
Method in brief: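 A nanobody's polyreactivity label depends on the gate it was sorted from. Yeast display cells were stained with 10% biotinylated, detergent-solubilized Sf9 membrane reagent for 1 hour at 4 °C, enriched on streptavidin microbeads and sorted by FACS. The low and high (top ~1%) gates were set on anti-HA fluorescence for expression and streptavidin fluorescence for reagent binding.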

Sequence	polyreactivity (PSR sort gate)
QVELVESGGGLVQAGGSLRLSCAASGRIFFYNGMGWYRQAPGKERELVAAINRSGGSTYYADSVKGRFTISRDNAKNTVYLQMNSLKPEDTAVYYCNAASFTVPMDYWGHGTQVTVSS	low polyreactivity
QVELVESGGGLVQAGGSLRLSCAASGRISYLYTMGWYRQAPGKERELFAASRWRDGSTYYADSVKGRFTISRDNAKTTVYLQMNSLKPEDTAVYFCGATPVGFYWYDYWGQGTQVTVSS	low polyreactivity
QVELVESGGGLVQAGGSLRLSCAASGSTFYYNAMGWYRQGPGTERELVAASTFTGGSTYADSVKGRFTISRDNAKNTVYLQMTSLKPEDTAVYYCAATIQRHDYLGTGYDYWGQGTQVTVSS	low polyreactivity
QVELVESGGGLVQAGRSLRLSCAASGRILVSYAMGWYRQAPGKERELVAGITSGGDSTYYADSVKGRFTISRDNAKNTVYLQMNSLKPEDTAVYYCDADRDSYRGRKNVRERYTYWGQGTQVTVSS	high polyreactivity
QVELVESGGGLVQPGGSLRLSCAASGSTFYYYAMGWYRQAPGKERELVATISSGSSTNYADSVKGRFTISRDNAKNTVYLQMNSLKPEDTAVYYCAADRWYITLSIDATISYEYWGQGTQVTVSS	low polyreactivity
QVEVVESGGGLVQAGGSLRLSCAASGRNFRFNAMGWYRQAPGKERELVAAISFRGGSTYYADTVKGRFTISRDNAKNTVYGQINSLKPEDPAVYYCAARARTGTYRDMYYWGQGTQVTVSS	high polyreactivity
QVHHEESGGGLVQAGGSLRLSCAASGGIFYLNDMGWYRQAPGKERELVAAITGTGGNTYYADSVKGRFTISRDNAKNTVYLQMNSLKPEDTAVYYCAAQHYWVTSYLSSYDYWGQGTQVTVSS	low polyreactivity
QVHHVESGGGLVQAGGNLRLSCQASGSTFDENDMGWYRQPQGKERELVAVISICTSTNYADSVKGRFTISRDNAKNTVYLQMNSLKPEDTAVYYFDAFVPGSYLDAIVGNAFNYWGQGTQVTVSS	low polyreactivity
QVHIVESGGGLVQAGGSLRLICAASGRTFNGYVMGWYRQAPGKEREFVAVINWSGGNTYYADSVKGRFTISRDNAKNTVYLQMNSLKPEDTAVYYCAARRVRSYAYDYWGQGTQVTVSS	high polyreactivity
QVHIVESGGGLVQAGGSLRLSCADSGSIFLSNVMGSYRQAPGKERELVDDITRSGGSTYYADSVKGRFTISRDNAKNTVYLQMNSLKPEDTAVYYCNAYEYLSAGYDYWGQGTQVTVSS	low polyreactivity
QVHLEESGGGLVQEGGSHRLSCAASGGTFFSYDMGWYRQAPGKERELVAAISATGGSTYYADSVKGRFTISRDNAKNTVYLQMNSLKPEDTAVYYCNAYQESGTYLRMDYWGQGTQVTVSS	low polyreactivity
QVHLLESGGGLFQPGGSLRLSCAASGRIFTSYAMGWYRPAPGKESELVAAISWGGGRTYYADSVKGRYTISRDNAKNTVYLQMNSVKPEDTAVYYCAALIADRDSPYDYWGQGTQVTVSS	high polyreactivity
QVHLLESGGGLVQAGGSLRLSCAAPGSTLFNYDMGWSRQAPGKERELLAAITTSGDSTYYADSVKGRFTISRDNAKNTVYFQMNSLKPEDTAVYYCNADVFKTVFYIDRYYYWGQGTKVTVSS	low polyreactivity
QVHLQESGDGLLQAVGSLRLSCAASGYISGYYYRGWYRQAPGKERELVAGIDAFGSSTNYADCVKGRFTISRDNSTNTVYLQMNSLKPEDTAVYYWAARPDGDRLFSYWGQGTQVTVSS	low polyreactivity
QVHLQESGGGLVQAGGSLRLSCAASGTISDSGLMGWYRQAPGKERELVAGISSGGINNYADSVKGRFTISRDNAKYTEYLQMNSLKPEDTAVYWGQGTQVTLSS	low polyreactivity
QVHLQESGGGLVQAGGSLRLSCAASRTIFRISDMGSYRQAPGKEREFVAAITYGANTYYADSGKGRFTISRDNAKNSVYLQMNSLKADDTAVYYCAVPPVKETILDYWGQGTQVNVSS	low polyreactivity
QVHLQESGGVQAGGSLPQSCAASGNISRSDVMGWYRQAPPKERELVATINNGTITYYADSVKGRFTISRDHAKNTVYLHMNSLKQEDTAVQYCAVVQSDTDSLYYWGQGTQVTVSS	low polyreactivity
QVHLQESGSGLVQAGGSLRLSCAASGAIFPAYLMGWYRQAPGKERELVAGSSYGSITYCADSVKGRFNISRDNAKNTVYLQMNSLKPEDTAVYYCAVLRPGGDEYYYWGQGTKVTVSS	low polyreactivity
QVHLVDSGGGLVQAGGSLRLSCAASGSIIVFYAMGWYRQAPGKERELVAAITDSGSTNYADSVKGRFTISRDNAKNTVYLQMNSLKPEDTAVYYCDWSYYVLRRYRVARYDSGGQGTQVTVSS	low polyreactivity
QVHLVDSGGGLVQAGGSLRLSCAATGFTFWYYAMGWYRQAPWKERELVATITWNGGSTYYADSVKGRFTISRDNAKNTVYIQMNSLQPEDTAVYYCNKSYISSSSWQYYYWGQGTQVTVSS	low polyreactivity
QVHLVDSGGGLVQAGGSLRLSSADSGSTFAANAIGWYRQAPGKERELVAAITSSGGSTYYADSVKGRFTISRDNATNTVYLQKNSLKPEDTAVYYCNKDMERYVRIYDSWGQGSQVTVSS	low polyreactivity
QVHLVDSGGGLVQAGGSLRLTCAASGSSFWAYVMGWYRQAPGKERELVAAISKSGVRTHYADSVKGRFTISRDNAKTTFYLQMNSLKPEDTAVYYFAAVGFGNLDDYWGQGTQVTVSS	high polyreactivity

Sequence	polyreactivity (PSR sort gate)
QVHLVDSRGVLVQAGGSLRLSCAASGRTFFHYAMGWYRQAPGKERELVAAITYRGTSTYYADSVKARFTISRDYAKNTVYLQMNSLKPEATAVYYCNAYTTRGGWSYRGDSWGQGTQVTVSS	high polyreactivity
QVHLVEAGGGLVQAGGSLRLSCAASACTFWPYARGLSSQAPGQDTELVAAMTSSGSTNYADSVKGRFTITRDNAKNTDYLQMNSLKPEDTAVNYCAADHRPSRFQSSVHLYYYWGQGTQVTVSS	low polyreactivity
QVHLVESAGGLVQAGGSLRLSSDSSGLIFYRYAMGWYRQAPGKERELVAAITSRSGRTYYADSVKGRFTFSRDNAKNTVYLQMNSLKPEDTAVYYCNAEWRSRYDYWGQGNQVTVSS	high polyreactivity
QVHLVESCGGLVQAGGSLRLSCAASGFTFYTYTMGWYRQAPGKERELVAVISRSGGSTYYADSVKGRFTISRDNAKNTVYLQMNSLKPEDTAVYYCNAGYWRFIDSYDYWGQGTQVTVSS	high polyreactivity
QVHLVESCGGLVQAGGSLRLSCAASGSTFTYNVMGSYRQAPGKERELVAAISWSGGSTFYADSVKGRFTISRDNAKNTVYLQMNSLKPEDTAVYYCNKDHLVYPSEFYYWGQGTQVTVSS	low polyreactivity
QVHLVESCGGLVQAGGSLRLSCAASGSTIETYAMGWNRQAPGKDREMVATISLSGGRTYYADSVKGRFTISRDYAKNTVYLQMNSLKPEDTEVYYCNADGYGNVGGGDSWGQGTQVTVSS	low polyreactivity
QVHLVESGAGLDQAGGSLSLSCAASGRNFSFNAMGSYRQAPGKVRELVASIRSGGSTNYADSVKGRFTISSDNAKNTVYLQMNSLKPEDTAVYYCAKRSTYWGWSSYGMDHWGQGTQVTVSS	high polyreactivity
QVHLVESGAGLVQAGGSLRLSCAASGRVFYYYAMGWYRQAPGKEREFVATISWSGVRTYYADSVKGRFTISRDNAKNTVYLQMNSLKPEDTAVYYCNADYYSPKFPSGMNYWGQGTQVTVSS	high polyreactivity
QVHLVESGAGLVQAGGSLRLSCAASGSTFAPNAMGWYRQAPGKERELVAAISSGGDSTNYADSVKGRFTISRDNAKNTVYLQMNSLKPEDTEVYYCAHGYWFVAYDYWGEGTQVTVSS	low polyreactivity
QVHLVESGAGLVQAGGSLSLSCAASVFTLHVYALGWYRQAPGKERELVAALSTGGNTNYADSVKGRFTISRDNAKNTVYLQMHSLKPEDTAVYYCAASNRGATRRQVNYWGQGTQVTVSS	high polyreactivity
QVHLVESGGALVQAGGSLRLSCAASGFIFRKYAMGWYRQAPGKERELVAAISYRGASTYYADSVKGRFTISRDNAKNTVYLQMNSLKPEDTAVYYCADRYSNPWARVSGYDYWGQGTQVTVSS	high polyreactivity
QVHLVESGGGIVQAGGSHRLSCAATGRIFAPYAMGWYRQAPGKERELVAAISWSDVSTDYADSVKGRFTISRDNAKNTVYLQMNSLKPEDTAVSYCAAAYPGYRGWYYYWGQGTQVTVSS	high polyreactivity
QVHLVESGGGIVQAGGSLRLSCAASGFTFQYNAMGWYRQAPGKERELVAAISYSGTSTYYADSVKGRFTISRDNPKNTVSLQKNSLKPEETAVYYCAVPRLSGSPSAYGYYYWGQGTQVTVSS	high polyreactivity
QVHLVESGGGIVQAGGSLRLSCAASGFTFTQYGMGWYRQAPGKEREFVATIRFSGDNTYYADSVKGRFTISRDNAKNTVYLQMNSLNPEDTAVYYCNADNRAFFVYPVSKRYDYWGQGTQVTVSS	low polyreactivity
QVHLVESGGGIVQAGGSLRLSCAASGIIFMDNAMGWYRQAPGKERELVAAITTGGITYYADSVKGRFTISRDNAKNTVYLQMNSLKPEDTAVYYCAADNEWPRYDYWGQGTQVTVSS	low polyreactivity
QVHLVESGGGIVQAGGSLRLSCAASGSTFGYYAMGWYRQAPGKERELVAAITTRGTRTYADSVKGRFTISRDNAKNTVYLQMNSLKPEDTAVYYCNAYEWGDFVLYTTDYDYWGQGTHVTVSS	high polyreactivity
QVHLVESGGGLDQAGGSLRLSCAASGRTFKSYTMGWYRQAPGKEREFVAAISSRGGNTYYADSVKGRFTISRDNAKNTVYLQMNSLKPEDTAVYYCAAESSYWSFPTYDYWGQGTQVTVSS	high polyreactivity
QVHLVESGGGLDQAGGSLRLSSAASGFTFQKYAMGWYRQAPGTERELVAAISSSGGRTYYADSLNGRFTISRDNAKITVYLQMNSLKPEDTAVYYCAVRGSYRGWYDYWGQGTQVTVSS	high polyreactivity
QVHLVESGGGLLQAGGSLRLSCAASGRTSDSNAMGWYRQAPGKETELVAAITISGVSTYYADTVKGRFTISRDNAKNTVYLQMNSLKPEDTAVYYCAKDPTFSSSFAVSLGFDSWGQGTQVTVSS	low polyreactivity
QVHLVESGGGLVEAGGSLRISCAAYGFIFGYNAMGWYRQAPGKERELVARINSGGNTNYADSVKGRFTISRDNAKNTVYLQMNSLKPEDTAVYYCARDASNRYDYWGQGNQVTVSS	low polyreactivity
QVHLVESGGGLVHAGGSLRLSCAASGIIFSYYAMGWYRQAPVKERELVAAISRSGVRTYFSDSVKGRFTISRDNAKNTVYLQMNSLKPEDTSVYYCNAEFSPYPYDYWGQGTQVTVSS	high polyreactivity
